Data: paper doi:10.1101/2023.03.17.533217 (2023)

B1: Aurora A kinase (AurA), residues 122-403, dephosphorylated (domain or fragment)
chain: ESKKRQWALEDFEIGRPLGKGKFGNVYLAREKQSKFILALKVLFKAQLEKAGVEHQLRREVEIQSHLRHPNILRLYGYFHDATRVYLILEYAPLGTVYRELQKLSKFDEQRTATYITELANALSYCHSKRVIHRDIKPENLLLGSAGELKIADFGWSVHAPSSRRTTLCGTLDYLPPEMIEGRMHDEKVDLWSLGVLCYEFLVGKPPFEANTYQETYKRISRVEFTFPDFVTEGARDLISRLLKHNPSQRPMLREVLEHPWITANSSKPSNCQNKESASKQS
B2: activating monobody Mb1 (designed binder)
chain: GSVSSVPTKLEVVAATPTSLLISWDAQTYQMYDYVSYYRITYGETGGNSPVQEFTVPGYYSTATISGLKPGVDYTITVYAEGYYSSYSPISINYRT
B3: inhibiting monobody Mb2 (designed binder)
chain: GSVSSVPTKLEVVAATPTSLLISWDAPAVTVVHYVITYGETGGNSPVQEFTVPGSKSTATISGLKPGVDYTITVYAIDFYWGSYSPISINYRT

Columns and labels:
Mb3 [1] = assay: ITC
Mb3 [2] = assay: ITC; danusertib
[3] = target: B1; assay: ITC
[4] = target: B1; assay: ITC; 50 µM danusertib
[5] = target: B1; assay: ITC; 150 µM danusertib
[6] = target: B1; assay: ITC; danusertib

Binder	Kd (Mb3 [1]) [nM]	Kd (Mb3 [2]) [nM]	Kd [3] [nM]	Kd [4] [nM]	Kd [5] [nM]	Kd [6] [nM]
B1	180	69	–	–	–	–
B2	–	–	952	18000	17700	–
B3	–	–	1500	–	–	889
